From article PMC10786891, “Massively parallel profiling of RNA-targeting CRISPR-Cas13d” come the findings set out here.

The labels stand for the following.
T1: EsCas13d, nuclease-dead (Eubacterium siraeum, UniProt B0MS50, R295A;H300A;R849A;H854A)
T1 sequence: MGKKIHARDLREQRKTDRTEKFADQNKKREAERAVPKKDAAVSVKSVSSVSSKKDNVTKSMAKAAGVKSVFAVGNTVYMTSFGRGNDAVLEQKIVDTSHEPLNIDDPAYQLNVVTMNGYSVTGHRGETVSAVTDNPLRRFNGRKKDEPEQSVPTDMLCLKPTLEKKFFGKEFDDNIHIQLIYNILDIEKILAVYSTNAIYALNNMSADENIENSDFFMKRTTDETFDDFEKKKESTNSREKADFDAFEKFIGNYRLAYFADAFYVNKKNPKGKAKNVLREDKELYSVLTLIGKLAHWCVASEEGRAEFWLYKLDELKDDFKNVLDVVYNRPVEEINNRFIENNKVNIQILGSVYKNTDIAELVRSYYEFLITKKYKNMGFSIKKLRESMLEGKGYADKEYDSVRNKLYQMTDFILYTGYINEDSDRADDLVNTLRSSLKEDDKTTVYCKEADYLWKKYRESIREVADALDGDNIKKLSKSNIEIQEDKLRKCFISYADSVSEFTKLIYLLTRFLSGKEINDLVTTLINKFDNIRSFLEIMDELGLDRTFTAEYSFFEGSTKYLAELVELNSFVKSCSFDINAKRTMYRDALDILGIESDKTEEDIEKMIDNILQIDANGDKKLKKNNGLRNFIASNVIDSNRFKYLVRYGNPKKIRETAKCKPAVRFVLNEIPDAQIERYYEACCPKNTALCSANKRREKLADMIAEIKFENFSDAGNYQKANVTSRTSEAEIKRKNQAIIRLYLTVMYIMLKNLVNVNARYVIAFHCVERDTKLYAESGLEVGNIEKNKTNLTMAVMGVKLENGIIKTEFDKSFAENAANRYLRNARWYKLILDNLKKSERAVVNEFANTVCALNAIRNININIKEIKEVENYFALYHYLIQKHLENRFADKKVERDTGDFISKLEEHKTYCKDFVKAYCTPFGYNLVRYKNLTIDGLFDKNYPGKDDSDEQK

B1: target 1 C4G,C7G (mixed)
RNA 1: CACCCGUGCAAAAAUGCAGGGGUCUAAAACUGAGCGGAUAACCUCUCUAUGG
RNA 2: GGGAAUGGAUCCACAUCUACGAAUUCGUACCAUAGAGAGGUUAUGCGGUCACCGAGAUCGGAAGAGCACACGU
B2: target 1 insA 3' of 22,insC 3' of 19 (mixed)
RNA 1: CACCCGUGCAAAAAUGCAGGGGUCUAAAACUGAGCGGAUAACCUCUCUAUGG
RNA 2: GGGAAUGGAUCCACAUCUACGAAUUCGUACACAUCAGAGAGGUUAUCCGCUCACCGAGAUCGGAAGAGCACACGU
B3: target 1 insG 3' of 4,insU 3' of 2 (mixed)
RNA 1: CACCCGUGCAAAAAUGCAGGGGUCUAAAACUGAGCGGAUAACCUCUCUAUGG
RNA 2: GGGAAUGGAUCCACAUCUACGAAUUCGUACCAUAGAGAGGUUAUCCGCGUCUACCGAGAUCGGAAGAGCACACGU
B4: target 1 insC 3' of 20,insA 3' of 11 (mixed)
RNA 1: CACCCGUGCAAAAAUGCAGGGGUCUAAAACUGAGCGGAUAACCUCUCUAUGG
RNA 2: GGGAAUGGAUCCACAUCUACGAAUUCGUACCACUAGAGAGGUAUAUCCGCUCACCGAGAUCGGAAGAGCACACGU
B5: target 1 G5A,C7G (mixed)
RNA 1: CACCCGUGCAAAAAUGCAGGGGUCUAAAACUGAGCGGAUAACCUCUCUAUGG
RNA 2: GGGAAUGGAUCCACAUCUACGAAUUCGUACCAUAGAGAGGUUAUGCACUCACCGAGAUCGGAAGAGCACACGU
B6: target 1 insU 3' of 22,insA 3' of 13 (mixed)
RNA 1: CACCCGUGCAAAAAUGCAGGGGUCUAAAACUGAGCGGAUAACCUCUCUAUGG
RNA 2: GGGAAUGGAUCCACAUCUACGAAUUCGUACUCAUAGAGAGAGUUAUCCGCUCACCGAGAUCGGAAGAGCACACGU
B7: target 1 insU 3' of 21,insU 3' of 9 (mixed)
RNA 1: CACCCGUGCAAAAAUGCAGGGGUCUAAAACUGAGCGGAUAACCUCUCUAUGG
RNA 2: GGGAAUGGAUCCACAUCUACGAAUUCGUACCUAUAGAGAGGUUAUUCCGCUCACCGAGAUCGGAAGAGCACACGU
B8: target 1 insC 3' of 13,insA 3' of 7 (mixed)
RNA 1: CACCCGUGCAAAAAUGCAGGGGUCUAAAACUGAGCGGAUAACCUCUCUAUGG
RNA 2: GGGAAUGGAUCCACAUCUACGAAUUCGUACCAUAGAGAGCGUUAUCACGCUCACCGAGAUCGGAAGAGCACACGU
B9: target 1 U11G,U19C (mixed)
RNA 1: CACCCGUGCAAAAAUGCAGGGGUCUAAAACUGAGCGGAUAACCUCUCUAUGG
RNA 2: GGGAAUGGAUCCACAUCUACGAAUUCGUACCACAGAGAGGGUAUCCGCUCACCGAGAUCGGAAGAGCACACGU
B10: target 1 insC 3' of 5 (mixed)
RNA 1: CACCCGUGCAAAAAUGCAGGGGUCUAAAACUGAGCGGAUAACCUCUCUAUGG
RNA 2: GGGAAUGGAUCCACAUCUACGAAUUCGUACCAUAGAGAGGUUAUCCGCCUCACCGAGAUCGGAAGAGCACACGU
B11: target 1 insC 3' of 15,insC 3' of 15 (mixed)
RNA 1: CACCCGUGCAAAAAUGCAGGGGUCUAAAACUGAGCGGAUAACCUCUCUAUGG
RNA 2: GGGAAUGGAUCCACAUCUACGAAUUCGUACCAUAGAGCCAGGUUAUCCGCUCACCGAGAUCGGAAGAGCACACGU
B12: target 1 insC 3' of 16,insA 3' of 7 (mixed)
RNA 1: CACCCGUGCAAAAAUGCAGGGGUCUAAAACUGAGCGGAUAACCUCUCUAUGG
RNA 2: GGGAAUGGAUCCACAUCUACGAAUUCGUACCAUAGACGAGGUUAUCACGCUCACCGAGAUCGGAAGAGCACACGU
B13: target 1 insC 3' of 17,insA 3' of 15 (mixed)
RNA 1: CACCCGUGCAAAAAUGCAGGGGUCUAAAACUGAGCGGAUAACCUCUCUAUGG
RNA 2: GGGAAUGGAUCCACAUCUACGAAUUCGUACCAUAGCAGAAGGUUAUCCGCUCACCGAGAUCGGAAGAGCACACGU
B14: target 1 A1G,G5A (mixed)
RNA 1: CACCCGUGCAAAAAUGCAGGGGUCUAAAACUGAGCGGAUAACCUCUCUAUGG
RNA 2: GGGAAUGGAUCCACAUCUACGAAUUCGUACCAUAGAGAGGUUAUCCACUCGCCGAGAUCGGAAGAGCACACGU
B15: target 1 insC 3' of 15,insC 3' of 12 (mixed)
RNA 1: CACCCGUGCAAAAAUGCAGGGGUCUAAAACUGAGCGGAUAACCUCUCUAUGG
RNA 2: GGGAAUGGAUCCACAUCUACGAAUUCGUACCAUAGAGCAGGCUUAUCCGCUCACCGAGAUCGGAAGAGCACACGU
B16: target 1 C2U,C4G (mixed)
RNA 1: CACCCGUGCAAAAAUGCAGGGGUCUAAAACUGAGCGGAUAACCUCUCUAUGG
RNA 2: GGGAAUGGAUCCACAUCUACGAAUUCGUACCAUAGAGAGGUUAUCCGGUUACCGAGAUCGGAAGAGCACACGU
B17: target 1 insC 3' of 13,insA 3' of 12 (mixed)
RNA 1: CACCCGUGCAAAAAUGCAGGGGUCUAAAACUGAGCGGAUAACCUCUCUAUGG
RNA 2: GGGAAUGGAUCCACAUCUACGAAUUCGUACCAUAGAGAGCGAUUAUCCGCUCACCGAGAUCGGAAGAGCACACGU
B18: target 1 U10C,G17C (mixed)
RNA 1: CACCCGUGCAAAAAUGCAGGGGUCUAAAACUGAGCGGAUAACCUCUCUAUGG
RNA 2: GGGAAUGGAUCCACAUCUACGAAUUCGUACCAUACAGAGGUCAUCCGCUCACCGAGAUCGGAAGAGCACACGU
B19: target 1 complement block 4-9 (mixed)
RNA 1: CACCCGUGCAAAAAUGCAGGGGUCUAAAACUGAGCGGAUAACCUCUCUAUGG
RNA 2: GGGAAUGGAUCCACAUCUACGAAUUCGUACCAUAGAGAGGUUUAGGCGUCACCGAGAUCGGAAGAGCACACGU
B20: target 1 insC 3' of 22,insG 3' of 6 (mixed)
RNA 1: CACCCGUGCAAAAAUGCAGGGGUCUAAAACUGAGCGGAUAACCUCUCUAUGG
RNA 2: GGGAAUGGAUCCACAUCUACGAAUUCGUACCCAUAGAGAGGUUAUCCGGCUCACCGAGAUCGGAAGAGCACACGU
B21: target 1 insU 3' of 21,insA 3' of 3 (mixed)
RNA 1: CACCCGUGCAAAAAUGCAGGGGUCUAAAACUGAGCGGAUAACCUCUCUAUGG
RNA 2: GGGAAUGGAUCCACAUCUACGAAUUCGUACCUAUAGAGAGGUUAUCCGCUACACCGAGAUCGGAAGAGCACACGU
B22: target 1 U8A,U10C (mixed)
RNA 1: CACCCGUGCAAAAAUGCAGGGGUCUAAAACUGAGCGGAUAACCUCUCUAUGG
RNA 2: GGGAAUGGAUCCACAUCUACGAAUUCGUACCAUAGAGAGGUCAACCGCUCACCGAGAUCGGAAGAGCACACGU
B23: target 1 insC 3' of 18,insG 3' of 2 (mixed)
RNA 1: CACCCGUGCAAAAAUGCAGGGGUCUAAAACUGAGCGGAUAACCUCUCUAUGG
RNA 2: GGGAAUGGAUCCACAUCUACGAAUUCGUACCAUACGAGAGGUUAUCCGCUCGACCGAGAUCGGAAGAGCACACGU
B24: target 1 C6G,A16C (mixed)
RNA 1: CACCCGUGCAAAAAUGCAGGGGUCUAAAACUGAGCGGAUAACCUCUCUAUGG
RNA 2: GGGAAUGGAUCCACAUCUACGAAUUCGUACCAUAGCGAGGUUAUCGGCUCACCGAGAUCGGAAGAGCACACGU
B25: target 1 insG 3' of 18,insU 3' of 15 (mixed)
RNA 1: CACCCGUGCAAAAAUGCAGGGGUCUAAAACUGAGCGGAUAACCUCUCUAUGG
RNA 2: GGGAAUGGAUCCACAUCUACGAAUUCGUACCAUAGGAGUAGGUUAUCCGCUCACCGAGAUCGGAAGAGCACACGU
B26: target 1 insU 3' of 15,insA 3' of 15 (mixed)
RNA 1: CACCCGUGCAAAAAUGCAGGGGUCUAAAACUGAGCGGAUAACCUCUCUAUGG
RNA 2: GGGAAUGGAUCCACAUCUACGAAUUCGUACCAUAGAGUAAGGUUAUCCGCUCACCGAGAUCGGAAGAGCACACGU
B27: target 1 insA 3' of 10,insC 3' of 8 (mixed)
RNA 1: CACCCGUGCAAAAAUGCAGGGGUCUAAAACUGAGCGGAUAACCUCUCUAUGG
RNA 2: GGGAAUGGAUCCACAUCUACGAAUUCGUACCAUAGAGAGGUUAAUCCCGCUCACCGAGAUCGGAAGAGCACACGU

For this series, the target named is T1, EsCas13d, nuclease-dead. Put plainly: crRNA (strand 1, pre-loaded); Mg2+; 40 mM Tris-HCl pH 7.5, 150 mM NaCl, 6 mM MgCl2, 1 mM DTT, 0.1% Tween-20, 0.2 mg/ml BSA; 25 C; 10 min per concentration, then washed. The settings on record: tags: His6-TwinStrep-SUMO cleaved; N-terminal SNAP kept (SNAP-Surface 488); label: 3' end held by stalled T7 RNA polymerase.
As to B1, the Kd amounted to 9.7 ± 0.5 nM.
To B2 belongs 51 ± 7 nM; to B3, 8.5 ± 0.4 nM.
B4 yielded a Kd of 11.9 ± 0.7 nM.
To B5 belongs 11.8 ± 0.8 nM; to B6, 17.1 ± 1.9 nM; to B7, 37 ± 4 nM.
To B8 belongs 14.2 ± 0.9 nM.
With B9 the figure was 86 ± 18 nM.
With B10, the Kd turned out to be 9.6 ± 0.7 nM.
To B11 belongs 26.6 ± 1.5 nM; to B12, 63 ± 15 nM.
To B13 belongs 28 ± 4 nM.
With B14 the figure was 35 ± 4 nM; with B15, 60 ± 13 nM.
For the molecule B16, the affinity, expressed as Kd, was 5.1 ± 0.5 nM.
In turn, B17 yielded a Kd of 15.7 ± 1 nM.
With B18 the figure was 63 ± 19 nM; with B19, 7.99 ± 0.28 nM.
To B20 belongs 25.2 ± 3.3 nM.
To B21 belongs 18.1 ± 0.9 nM.
On to B22, for which the affinity, expressed as Kd, was 19.2 ± 1.2 nM.
To B23 belongs 38.9 ± 2.9 nM; to B24, 42.2 ± 1.8 nM; to B25, 70 ± 17 nM.
With B26 the figure was 19 ± 1.7 nM; with B27, 15.4 ± 0.8 nM.
